Experimental data: patent US20250270314A1 (TAVOTEK BIOTECH SUZHOU, published 2025)

T1: human CDH17 on AGS gastric cancer cells and AsPC-1 pancreatic cancer cells (human, UniProt Q12864 23-832)
T1 construct: Native CDH17 on the surface of cancer cell lines; also called CDH17 expressing AGS cells; CDH17 expressing AsPC-1 pancreatic cancer cells
T1 sequence: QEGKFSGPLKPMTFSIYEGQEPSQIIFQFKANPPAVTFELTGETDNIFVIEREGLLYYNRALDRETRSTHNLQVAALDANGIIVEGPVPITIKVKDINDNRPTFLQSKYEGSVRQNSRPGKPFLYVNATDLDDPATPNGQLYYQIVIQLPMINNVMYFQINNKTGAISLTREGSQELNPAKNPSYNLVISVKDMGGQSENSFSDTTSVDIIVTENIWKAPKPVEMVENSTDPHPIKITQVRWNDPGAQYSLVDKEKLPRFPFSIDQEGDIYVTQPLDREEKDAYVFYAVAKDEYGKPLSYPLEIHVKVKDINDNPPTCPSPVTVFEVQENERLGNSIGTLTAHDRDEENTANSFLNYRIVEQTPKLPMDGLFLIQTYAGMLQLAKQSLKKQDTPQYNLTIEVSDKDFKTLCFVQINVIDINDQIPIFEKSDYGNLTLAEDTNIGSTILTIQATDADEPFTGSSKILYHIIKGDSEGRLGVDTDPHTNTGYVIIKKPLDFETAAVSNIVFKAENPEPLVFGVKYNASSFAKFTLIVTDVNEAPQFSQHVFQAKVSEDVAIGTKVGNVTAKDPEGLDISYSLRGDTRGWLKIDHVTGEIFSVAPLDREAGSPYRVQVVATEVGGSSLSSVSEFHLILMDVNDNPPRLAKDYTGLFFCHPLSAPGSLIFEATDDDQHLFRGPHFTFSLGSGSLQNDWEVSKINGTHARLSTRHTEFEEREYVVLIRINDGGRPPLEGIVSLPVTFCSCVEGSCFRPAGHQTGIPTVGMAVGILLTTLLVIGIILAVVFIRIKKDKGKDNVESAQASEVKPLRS

B1: VHO v342 (VHH)
VHH: EVQLLESGGGLVQPGGSLRLSCAASGFTFSDYWMSWVRQAPGKGLEWVSNISQSGGSTYYADSVKGRFTISRDNSKNTLYLQMNSLRAEDTAVYYCAKDTPGPRWDFDYWGQGTLVTVSS
notes: Variable-heavy-only (VHO) single domain; also called TS00342
B2: VHO v346 (VHH)
VHH: EVQLLESGGGLVQPGGSLRLSCAASGFTFSDYWMSWVRQAPGKGLEWVSAIKQDGGSTYYADSVKGRFTISRDNSKNTLYLQMNSLRAEDTAVYYCAKETWEAHWDFDYWGQGTLVTVSS
notes: Variable-heavy-only (VHO) single domain; also called TS00346
B3: VHO v365 (VHH)
VHH: EVQLLESGGGLVQPGGSLRLSCAASGFTFSDYWMSWVRQAPGKGLEWVSNINQDGGSTYYADSVKGRFTISRDNSKNTLYLQMNSLRAEDTAVYYCAKTSDWLLVQFDYWGQGTLVTVSS
notes: Variable-heavy-only (VHO) single domain; also called TS00365
B4: VHO v341 (VHH)
VHH: EVQLLESGGGLVQPGGSLRLSCAASGFTFSTYWMSWVRQAPGKGLEWVSVINQDGSSTYYADSVKGRFTISRDNSKNTLYLQMNSLRAEDTAVYYCAKDELKSEWDFDYWGQGTLVTVSS
notes: Variable-heavy-only (VHO) single domain; also called TS00341
B5: VHO v357 (VHH)
VHH: EVQLLESGGGLVQPGGSLRLSCAASGFTFSDYWMSWVRQAPGKGLEWVSNISSSGSSTYYADSVKGRFTISRDNSKNTLYLQMNSLRAEDTAVYYCAKTSDWLSGKIDEHFDYWGQGTLVTVSS
notes: Variable-heavy-only (VHO) single domain; also called TS00357
B6: VHO v370 (VHH)
VHH: EVQLLESGGGLVQPGGSLRLSCAASGFTFSNYWMSWVRQAPGKGLEWVSNISSDGGSTYYADSVKGRFTISRDNSKNTLYLQMNSLRAEDTAVYYCAKTTTWLTYRQGHGFDYWGQGTLVTVSS
notes: Variable-heavy-only (VHO) single domain; also called TS00370
B7: VHO v369 (VHH)
VHH: EVQLLESGGGLVQPGGSLRLSCAASGFTFSDYWMSWVRQAPGKGLEWVSNISGSGSSTYYADSVKGRFTISRDNSKNTLYLQMNSLRAEDTAVYYCAKTSQWLARERSSEFDYWGQGTLVTVSS
notes: Variable-heavy-only (VHO) single domain; also called TS00369
B8: VHO v355 (VHH)
VHH: EVQLLESGGGLVQPGGSLRLSCAASGFTFSDYWMSWVRQAPGKGLEWVSAISGDGSSTYYADSVKGRFTISRDNSKNTLYLQMNSLRAEDTAVYYCAKETWGTYDFDYWGQGTLVTVSS
notes: Variable-heavy-only (VHO) single domain; also called TS00355
B9: VHO v343 (VHH)
VHH: EVQLLESGGGLVQPGGSLRLSCAASGFTFSDYWMSWVRQAPGKGLEWVSAIKGDGSSTYYADSVKGRFTISRDNSKNTLYLQMNSLRAEDTAVYYCAKEEWRPYSFDYWGQGTLVTVSS
notes: Variable-heavy-only (VHO) single domain; also called TS00343
B10: VHO v349 (VHH)
VHH: EVQLLESGGGLVQPGGSLRLSCAASGFTFSDYWMHWVRQAPGKGLEWVSAIWSSGGSTYYADSVKGRFTISRDNSKNTLYLQMNSLRAEDTAVYYCAKSPTLYDDFDYWGQGTLVTVSS
notes: Variable-heavy-only (VHO) single domain; also called TS00349
B11: VHO v345 (VHH)
VHH: EVQLLESGGGLVQPGGSLRLSCAASGFTFSNYWMSWVRQAPGKGLEWVSAIKQDGSSTYYADSVKGRFTISRDNSKNTLYLQMNSLRAEDTAVYYCAKEEWRDYDFDYWGQGTLVTVSS
notes: Variable-heavy-only (VHO) single domain; also called TS00345
B12: VHO v352 (VHH)
VHH: EVQLLESGGGLVQPGGSLRLSCAASGFTFSSYWMHWVRQAPGKGLEWVSAIWSSGGSTYYADSVKGRFTISRDNSKNTLYLQMNSLRAEDTAVYYCAKSKSLHEDFDYWGQGTLVTVSS
notes: Variable-heavy-only (VHO) single domain; also called TS00352

Target: T1, human CDH17 on AGS gastric cancer cells …
Assay: flow cytometry on AGS and AsPC-1 cells

Binding result, binds:
B1
B2
B3
B4
B5
B6
B7
B8
B9
B10
B11
B12
